The values below come from patent US20170306037A1 (Novartis, published 2017).

In assay [1] the target is T1, DcR2 (human, UniProt Q9UBN6).
T1 sequence (receptor, looked up): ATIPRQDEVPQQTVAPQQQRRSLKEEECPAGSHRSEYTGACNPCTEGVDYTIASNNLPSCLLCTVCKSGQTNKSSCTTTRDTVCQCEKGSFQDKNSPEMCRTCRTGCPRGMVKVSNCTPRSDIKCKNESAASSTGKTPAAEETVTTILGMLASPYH
Nature of the assay: specificity ELISA, bacterial lysate on HisGrab nickel plate. The procedure:
(§1) For the specificity ELISA, a crude cell lysate was made from bacteria expressing members of the TNFRSF family. To prevent nonspecific binding to the plate 50 μL of 5% BSA was added per mL of bacterial lysate. […] The plate was then rinsed three times with PBST, then MAB was diluted to 0.5 μg/mL in 10% FBS in PBS and 100 μL was added to each well. The plate was incubated for 1 hour at room temperature and then rinsed three times with PBST. Anti-human kappa antibody (Sigma #A7164) conjugated to HRP was diluted 1:5000 in 1:1 PBST: 10% FBS in PBS and 100 μL added to each well. The plate was incubated for 1 hour at room temperature, and then washed three times with PBST. 100 μL of SureBlue TMB substrate was added to each well and the plate was incubated for about 10 min at room temperature before stopping the reaction with 100 μL /well of 2N H₂SO₄.
(In general: An ELISA detects its analyte on a solid surface through an enzyme-linked reagent.)

The target of assay [2] is T2, CD27 (human, UniProt P26842).
T2 sequence (receptor, looked up): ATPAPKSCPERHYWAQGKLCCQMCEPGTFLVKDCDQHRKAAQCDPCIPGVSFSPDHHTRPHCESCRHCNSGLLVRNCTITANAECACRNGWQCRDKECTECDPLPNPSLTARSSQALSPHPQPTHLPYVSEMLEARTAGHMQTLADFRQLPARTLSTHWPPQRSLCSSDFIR
Described as above. The procedure: as §1

Assay [3] deals with T3, TACI (human, UniProt O14836).
T3 sequence (receptor, looked up): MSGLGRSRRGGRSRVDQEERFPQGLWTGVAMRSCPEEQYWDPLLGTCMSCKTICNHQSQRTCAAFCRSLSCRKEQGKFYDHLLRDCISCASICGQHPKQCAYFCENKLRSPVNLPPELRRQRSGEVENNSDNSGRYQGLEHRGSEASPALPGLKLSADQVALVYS
Described as above. The procedure:
as §1

Assay [4] has as its target T4, DR3 (human, UniProt Q93038).
T4 sequence (receptor, looked up): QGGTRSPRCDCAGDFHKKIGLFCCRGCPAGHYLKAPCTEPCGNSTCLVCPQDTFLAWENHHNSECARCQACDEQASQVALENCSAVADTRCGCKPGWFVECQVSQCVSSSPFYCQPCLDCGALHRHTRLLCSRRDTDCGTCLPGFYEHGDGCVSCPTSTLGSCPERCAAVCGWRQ
The description is as above. The procedure:
as §1

Assay [5] has as its target T5, BCMA (human, UniProt Q02223).
T5 sequence (receptor, looked up): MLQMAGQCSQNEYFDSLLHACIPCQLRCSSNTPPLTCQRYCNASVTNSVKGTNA
Described as above. The procedure: as §1

For assay [6], the target named is T6, DcR1 (human, UniProt O14798).
T6 sequence (receptor, looked up): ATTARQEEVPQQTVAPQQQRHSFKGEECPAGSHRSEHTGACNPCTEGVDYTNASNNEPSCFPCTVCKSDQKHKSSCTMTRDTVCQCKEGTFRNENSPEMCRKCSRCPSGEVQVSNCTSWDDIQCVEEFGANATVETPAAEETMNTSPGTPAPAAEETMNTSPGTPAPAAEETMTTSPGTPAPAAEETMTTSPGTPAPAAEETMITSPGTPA
The assay is described as above. The procedure:
as §1

In assay [7] the target is T7, DR4 (human, UniProt O00220).
T7 sequence (receptor, looked up): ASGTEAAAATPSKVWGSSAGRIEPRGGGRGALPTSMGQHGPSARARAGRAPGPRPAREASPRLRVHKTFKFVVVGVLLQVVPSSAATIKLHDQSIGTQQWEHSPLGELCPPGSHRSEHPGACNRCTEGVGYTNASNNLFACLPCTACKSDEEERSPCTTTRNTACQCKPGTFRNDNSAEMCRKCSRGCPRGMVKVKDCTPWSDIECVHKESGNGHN
Described as above. The procedure: as §1

The target of assay [8] is T8, NGFR (human, UniProt P08138).
T8 sequence (receptor, looked up): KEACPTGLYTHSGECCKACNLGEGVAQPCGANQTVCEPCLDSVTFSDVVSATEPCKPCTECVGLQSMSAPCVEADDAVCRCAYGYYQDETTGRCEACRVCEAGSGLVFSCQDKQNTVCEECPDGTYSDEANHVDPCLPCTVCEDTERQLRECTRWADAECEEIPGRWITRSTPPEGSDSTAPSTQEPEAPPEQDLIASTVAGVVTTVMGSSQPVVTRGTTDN
The description is as above. The procedure:
as §1

Assay [9] has as its target DR5 (human, UniProt O14763). Described as above. The procedure:
as §1

Assay [10] addresses cyno GITR (cGITR), form not stated (cynomolgus monkey). Nature of the assay: Biacore (SPR), IgG. A general note: SPR reads the build-up and loss of mass on a sensor chip optically.
Assay [11] deals with T9, human GITR (hGITR), form not stated (human, UniProt Q9Y5U5 26-162, limits assumed).
T9 construct: the construct is not described
T9 sequence: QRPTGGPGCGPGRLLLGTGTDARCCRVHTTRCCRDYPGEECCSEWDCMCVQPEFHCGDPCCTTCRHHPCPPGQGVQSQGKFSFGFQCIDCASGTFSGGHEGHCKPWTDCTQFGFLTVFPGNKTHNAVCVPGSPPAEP
Nature of the assay: Biacore (SPR), IgG.

Assay [12] concerns the target cyno GITR (cGITR), form not stated (cynomolgus monkey). In words: Biacore (SPR).

B1: MAB4 (IgG1 kappa) (antibody, V domains shown)
VH: EVQLVESGGGLVQSGGSLRLSCAASGFSLSSYGVDWVRQAPGKGLEWVGVIWGGGGTYYASSLMGRFTISRDNSKNTLYLQMNSLRAEDTAVYYCAKHAYGHDGGFAMDYWGQGTLVTVSS
VL: EIVMTQSPATLSVSPGERATLSCRASESVSSNVAWYQQRPGQAPRLLIYGASNRATGIPARFSGSGSGTDFTLTISRLEPEDFAVYYCGQSYSYPFTFGQGTKLEIKR
Usually Kd stands for a measure of binding affinity in units of concentration. High values mean lower affinity, low ones higher affinity. For the molecule B1, the binding result in assay [1], in assay [2], in assay [3], in [4], in [5] and in [6] was “no binding (tested: not on the sheet; paragraph 335: 0.5 µg/mL)” in each case. The binding result in [7], in assay [8] and in assay [9] was “no binding (tested: not on the sheet; paragraph 335: 0.5 µg/mL)” in each case. Moreover, the Kd in [10] was 1.78 nM; in assay [11] it was 0.684 nM. Further, the “fold lower binding affinity for cyno GITR than for human GITR” value in assay [12] was in the range of 2 to 3 fold.

B2: MAB5 (IgG1 kappa) (antibody, V domains shown)
VH: EVQLVESGGGLVQSGGSLRLSCAASGFSLSSYGVDWVRQAPGKGLEWLGVIWGGGGTYYTSSLMGRFTISRDNSKNTLYLQMNSLRAEDTAVYYCAKHAYGHDGGFAMDYWGQGTLVTVSS
VL: EIVMTQSPATLSVSPGERATLSCRASESVSSNVAWYQQRPGQAPRLLIYGASNRATGIPARFSGSGSGTDFTLTISRLEPEDFAVYYCGQSYSYPFTFGQGTKLEIKR
notes: also called MABS (misprint of MAB5)
For B2, the binding result in assay [1], in assay [2], in assay [3], in assay [4], in assay [5] and in assay [6] was “no binding (tested: not on the sheet; paragraph 335: 0.5 µg/mL)” each time. For the same molecule, the binding result in assay [7], in assay [8] and in assay [9] was “no binding (tested: not on the sheet; paragraph 335: 0.5 µg/mL)” in each case. Besides, the Kd in assay [10] is 1.87 nM; in [11] it was 0.973 nM. In addition, in assay [12], the “fold lower binding affinity for cyno GITR than for human GITR” value lay within 2 to 3 fold.
